How the values were obtained:
[1] = target: the ribosome (40S + 60S subunits) (human (endogenous in HeLa)) (UniProt P62753); experiment: co-sedimentation; puromycin-treated crude ribosomal preparation resolved by sucrose-gradient centrifugation; ribosome fractions combined for western blot (Supplementary Fig. S1)
[2] = target: 40S ribosomal subunit (human (endogenous in HeLa)) (UniProt P62753); experiment: co-sedimentation; ribosome fractions from HeLa cells, first and second 10-40% sucrose gradient, 20 mM Tris-HCl pH 7.5, 500 mM KCl, 4 mM magnesium acetate, 2 mM DTT, 4 °C; fractions and the purified subunits blotted for PABP, without GST-Paip2 treatment
[3] = target: 60S ribosomal subunit (human (endogenous in HeLa)) (UniProt P40429); experiment: as above

molar ratio of PABP to the ribosome (40S + 60S subunits) (western blot) [1]: 2
molar ratio of subunit to PABP in the purified subunit (western blot) [2]: 10
molar ratio of subunit to PABP in the purified subunit (western blot) [3]: 10
Substance: poly(A)-binding protein (PABP), endogenous in HeLa ribosome preparations (from UniProt P11940 1-636) (natural protein)
